We go through one molecule from publication PMC11253692.

In this data set the target is TGF-β1 (human, UniProt P01137 279-390). In words: ELISA. A general note: ELISA stands for enzyme-linked immunosorbent assay.
Chain of TGF-β1 (P01137 279-390): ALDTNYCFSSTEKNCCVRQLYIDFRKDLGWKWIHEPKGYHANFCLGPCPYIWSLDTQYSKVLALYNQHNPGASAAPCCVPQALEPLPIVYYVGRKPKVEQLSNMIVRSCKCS

B1: TGF-β1 aptamer (ssDNA)
DNA: CGCTCGGCTTCACGAGATTCGTGTCGTTGTGTCCTGTACCCGCCTTGACCAGTCACTCTAGAGCATCCGGACTG
modifications: 5'-SH (coupled to PEG-maleimide hydrogel)
Regarding B1, the binding signal is > 60 % bound (highest binding ratio, reached at 4 h).
